Data published in US20110262944A1 (UNIVERSITY OF TSUKUBA, published 2011).

How the values were obtained:
Experiment in all cases: Ni-NTA co-precipitation after co-expression in E. coli
[1] = target: T1, PB2-N (residues 1-86) carrying a hexa-histidine tag at the N-terminal end (influenza A/Puerto Rico/8/34 H1N1, UniProt A4GCJ6 1-86)
T1 sequence: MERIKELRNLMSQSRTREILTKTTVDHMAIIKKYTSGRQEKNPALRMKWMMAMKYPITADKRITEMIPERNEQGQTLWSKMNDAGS

[2] = target: PB2 residues 252-490 with N-terminal hexa-histidine tag and TEV cleavage site (influenza A/Puerto Rico/8/34 H1N1, UniProt B4URE6 252-490)
[3] = target: T2, PB2 residues 37-174 with N-terminal hexa-histidine tag and TEV cleavage site (influenza A/Puerto Rico/8/34 H1N1, UniProt A4GCJ6 37-174)
T2 sequence: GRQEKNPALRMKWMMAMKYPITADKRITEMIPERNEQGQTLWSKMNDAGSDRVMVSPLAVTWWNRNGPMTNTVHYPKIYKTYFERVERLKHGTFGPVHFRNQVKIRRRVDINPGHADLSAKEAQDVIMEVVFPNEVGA

B1: PB1-C (C-terminal residues 678-757 of the RNA polymerase PB1 subunit, influenza A/Puerto Rico/8/34 H1N1) (other)
chain: SQRGVLEDEQMYQRCCNLFEKFFPSSSYRRPVGISSMVEAMVSRARIDARIDFESGRIKKEEFTEIMKICSTIEELRRQK
B1: binds [1]; no binding [2]; no binding [3].
